In FireProtDB (doi:10.1016/j.jmb.2009.07.074):

Conditions: Rhodopseudomonas palustris (strain ATCC BAA-98 / CGA009); pH 6.5; 25 °C; GdnHCl; CD; MES 20 mM; NaCl 40 mM; whole UniProt chain shown

B1: Cytochrome c' wild type, P00149 (protein)
chain: MKLRIATIAGLVVLGSGFAVAQTDVIAQRKAILKQMGEATKPIAAMLKGEAKFDQAVVQKSLAAIADDSKKLPALFPADSKTGGDTAALPKIWEDKAKFDDLFAKLAAAATAAQGTIKDEASLKANIGGVLGNCKSCHDDFRAKKS
For B1, which denaturant m value is on record?
The denaturant m value was 5.12 kcal/mol/M.

What about the “denaturant midpoint (higher = more stable)” value of the same protein?
Its value is 1.71 M.

What about the unfolding free energy of the same protein?
The unfolding free energy was 8.77 kcal/mol.
